Kd data for one substance are collected here from article PMC9898751.

In experiment [1] the target is PHF2(1–451), N-terminal half of human PHF2 with the PHD and Jumonji domains (residues 1–451) (human) (UniProt O75151). Briefly: ITC.
The target of experiment [2] is PHF2(1–70), PHD domain of human PHF2 (residues 1–70) (human) (UniProt O75151). The experiment can be described thus: ITC. For orientation: Isothermal titration calorimetry measures the heat released or taken up as one component is titrated into another.
Sequence of PHF2(1–70), PHD domain of human PHF2 (residues 1–70) (human) (O75151 1-70): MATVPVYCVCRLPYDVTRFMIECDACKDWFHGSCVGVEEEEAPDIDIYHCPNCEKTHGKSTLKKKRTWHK

Sequence of PHF2(1–451), N-terminal half of human PHF2 with the PHD and Jumonji domains (residues 1–451) (human) (O75151 1-451): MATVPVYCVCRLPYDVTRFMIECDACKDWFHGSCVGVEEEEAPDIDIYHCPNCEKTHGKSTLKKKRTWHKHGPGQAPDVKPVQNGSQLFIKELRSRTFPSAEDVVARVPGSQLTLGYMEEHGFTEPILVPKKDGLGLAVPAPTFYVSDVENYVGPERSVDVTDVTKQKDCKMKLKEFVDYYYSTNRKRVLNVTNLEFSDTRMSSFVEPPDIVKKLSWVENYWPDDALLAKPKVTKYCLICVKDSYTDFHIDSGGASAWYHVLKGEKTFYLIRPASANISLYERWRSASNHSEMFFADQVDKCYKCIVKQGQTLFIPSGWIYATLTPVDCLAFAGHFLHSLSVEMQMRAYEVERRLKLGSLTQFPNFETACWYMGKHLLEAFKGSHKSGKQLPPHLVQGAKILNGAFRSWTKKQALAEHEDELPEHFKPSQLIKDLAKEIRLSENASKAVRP

In the case of “VRK1(1-12)K4me3 peptide (12-mer of the N-terminus of vaccinia-related kinase 1, trimethylated at lysine 4)”, the Kd in experiment [1] worked out at 42 nM; in experiment [2] it was 900 nM.

Broadly, the Kd is the equilibrium constant for the complex coming apart.
